Measured values published in patent publication US20170326229A1.

What was measured:
Experiment in all cases: ELISA, gp120 on plate
[1] = target: CH505 Env w030.13 gp120 (HIV-1)
[2] = target: CH505 Env w030.36 gp120 (HIV-1)
[3] = target: CH505 Env w020.25 gp120 (HIV-1)
[4] = target: CH505 Env w053.29 gp120 (HIV-1)
[5] = target: CH505 Env w136.B23 gp120 (HIV-1)
[6] = target: CH505 Env w136.B10 gp120 (HIV-1)
[7] = target: CH505 Env w078.15 gp120 (HIV-1)
[8] = target: CH505 Env w078.17 gp120 (HIV-1)
[9] = target: CH505 Env w078.6 gp120 (HIV-1)
[10] = target: CH505 Env w030.17 gp120 (HIV-1)
[11] = target: CH505 Env w160.T4 gp120 (HIV-1)
[12] = target: CH505 Env w020.11 gp120 (HIV-1)
[13] = target: CH505 Env w078.9 gp120 (HIV-1)
[14] = target: CH505 Env w004.54 gp120 (HIV-1)
[15] = target: CH505 Env w030.21 gp120 (HIV-1)
[16] = target: CH505 Env w053.31 gp120 (HIV-1)
[17] = target: CH505 Env w030.20 gp120 (HIV-1)
[18] = target: CH505 Env w053.22 gp120 (HIV-1)
[19] = target: CH505 Env w136.B2 gp120 (HIV-1)
[20] = target: CH505 transmitted/founder (TF) Env gp120 (HIV-1)
[21] = target: CH505 Env w100.A13 gp120 (HIV-1)
[22] = target: CH505 Env w053.15 gp120 (HIV-1)
[23] = target: CH505 Env w020.15 gp120 (HIV-1)
[24] = target: CH505 Env w078.33 gp120 (HIV-1)
[25] = target: CH505 Env w100.B4 gp120 (HIV-1)
[26] = target: CH505 Env w100.B2 gp120 (HIV-1)
[27] = target: CH505 Env w136.B5 gp120 (HIV-1)

Row | Substance | log-transformed AUC [1] [log AUC] | log-transformed AUC [2] [log AUC] | log-transformed AUC [3] [log AUC] | log-transformed AUC [4] [log AUC] | log-transformed AUC [5] [log AUC] | log-transformed AUC [6] [log AUC] | log-transformed AUC [7] [log AUC] | log-transformed AUC [8] [log AUC] | log-transformed AUC [9] [log AUC] | log-transformed AUC [10] [log AUC] | log-transformed AUC [11] [log AUC] | log-transformed AUC [12] [log AUC] | log-transformed AUC [13] [log AUC] | log-transformed AUC [14] [log AUC] | log-transformed AUC [15] [log AUC] | log-transformed AUC [16] [log AUC] | log-transformed AUC [17] [log AUC] | log-transformed AUC [18] [log AUC] | log-transformed AUC [19] [log AUC] | log-transformed AUC [20] [log AUC] | further results
1 | CH103 lineage intermediate ancestor IA1 (antibody) | 10.5 | 6.7 | 8.6 | 8.8 | 14.4 | 9.2 | 10.9 | 9 | 3 | 5.8 | 13.6 | 1.8 | 6.3 | 6.2 | 11.8 | 13.4 | 5.7 | 8.8 | 13.2 | 10.4 | log-transformed AUC [21]: 12.6 log AUC; log-transformed AUC [22]: 9.2 log AUC; log-transformed AUC [23]: 9.9 log AUC; log-transformed AUC [24]: 8.2 log AUC; log-transformed AUC [25]: 13.7 log AUC; log-transformed AUC [26]: 7.3 log AUC; log-transformed AUC [27]: 9.5 log AUC
2 | CH103 CD4 binding site broadly neutralizing antibody | 12.9 | 9.1 | 10.3 | 10.2 | 11.8 | 11.5 | 10.7 | 11.3 | 9.9 | 9.9 | 9 | 9.6 | 8.9 | 9.2 | 12.2 | 13.6 | 9.5 | 11.6 | 10.8 | 12.6 | log-transformed AUC [21]: 12.9 log AUC; log-transformed AUC [22]: 11.2 log AUC; log-transformed AUC [23]: 11.8 log AUC; log-transformed AUC [24]: 11.1 log AUC; log-transformed AUC [25]: 9.7 log AUC; log-transformed AUC [26]: 3.2 log AUC; log-transformed AUC [27]: 4.3 log AUC
